In PMC5297723:

Molecular target: recombinant CMG2-Fc-Apo (rCMG2-Fc-Apo) protein (human) (UniProt P58335)
Assay: non-reducing SDS-PAGE

How did the stoichiometry N turn out when “recombinant CMG2-Fc-Apo (rCMG2-Fc-Apo) protein (from UniProt P58335 34-318) (Fc fusion)” was run?
The stoichiometry N was 2.
